{
  "source": "patent US6884600B1",
  "about": "“Protein phosphatase-1 catalytic subunit interactions” (Medical Research Council London, priority 1996, dated 2005)",
  "molecules": {"B1": {"name": "M110-(M1-E309): rat aorta M110 fragment, residues 1-309, released from GST-fusion protein with thrombin (protein)", "chain": "GSPGMKMADAKQKRNEQLKRWIGSETDLEPPVVKRQKTKVKFDDGAVFLAACSSGDTDEVLKLLHRGADINYANVDGLTALHQACIDDNVDMVKFLVENGANINQPDNEGWIPLHAAASCGYLDIAEFLIGQGAHVGAVNSEGDTPLDIAEEEAMEELLQNEVNRQGVDIEAARKEEERIMLRDARQWLNSGHISDVRHAKSGGTALHVAAAKGYTEVLKLLIQAGYDVNIKDYDGWTPLHAAAHWGKEEACRILVDNLCDMETVNKVGQTAFDVADEDILGYLEELQKKQNLLHSEKRDKKSPLIESTANMEA"}},
  "key": {"PP1c [1]": {"molecular_target": "T1, PP1c (Oryctolagus cuniculus, UniProt P62143)", "T1 construct": "from tissue; host or cells: rabbit skeletal muscle (PP1G dissociated with LiBr)", "T1 sequence (P62143 whole entry)": "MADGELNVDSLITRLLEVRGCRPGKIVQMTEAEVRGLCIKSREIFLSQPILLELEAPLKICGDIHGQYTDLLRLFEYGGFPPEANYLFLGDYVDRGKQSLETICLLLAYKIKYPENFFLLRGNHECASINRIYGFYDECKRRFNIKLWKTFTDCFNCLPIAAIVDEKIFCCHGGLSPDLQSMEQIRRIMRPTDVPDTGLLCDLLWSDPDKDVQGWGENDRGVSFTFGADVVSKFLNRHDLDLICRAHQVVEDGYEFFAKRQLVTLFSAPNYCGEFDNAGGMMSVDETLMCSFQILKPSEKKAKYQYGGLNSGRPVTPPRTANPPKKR", "assay": "Phosphorylase phosphatase activity of PP1c", "assay_type": "biochemical, rabbit", "procedure": "(§1) A,B; Effects of M110-(M1-E309) (closed circles), M110-(M1-F38) (open circles) and M110-(D39-E309) (open triangles) on the MLC20 phosphatase […] and phosphorylase phosphatase (B) activities of PP1c were measured after incubating PP1c for 15 minutes at 30° C. with each fragment. The results are presented as a percentage of those obtained in experiments where the M110 fragments were omitted.\n(§2) C,D; The effect of M110-(M1-A150) (open circles) and M110-(L24-Y496) (closed circles) on the MLC20 phosphatase (C) and phosphorylase phosphatase (D) activities of PP1c were measured as in A,B.\n(B) The phosphorylase phosphatase activity of PP1c was assayed as in A in the presence or absence of 1 μM GM-(G63-T93) and 1.0 nM M110-(M1-E309). The results are presented (SEM for three experiments) as a percentage of the PP1c activity measured in the absence of GM-(63-T93), M110-(M1-F38) or M110-(M1-E309).\n(§3) The myosin-associated form of PP1 (PP1M) was from chicken gizzard and the glycogen-associated form of PP1 (PP1G) from rabbit skeletal muscle. The β isoform of PP1c was released from PP1G by incubation for 2 hours in 2M LiBr, then purified by gel-filtration on a 30×1 cm column of Superose 12 (Pharmacia, Milton Keynes, U.K.) in the presence of 0.5M LiBr. Glycogen protein particles from rat liver were used as the source of hepatic PP1G Digoxygenin-labelled PP1c (γ1-isoform, hereafter termed PP1) was prepared as in [9]. GL was expressed in E. coli as a glutathione-S-transferase (GST) fusion protein [7], termed GST-GL. The catalytic subunit of PP2A from bovine heart (PP2AC) was provided by Dr R. MacKintosh in this Unit. The phosphorylatable myosin light chain (MLC20) and heavy meromyosin from chicken gizzard were a gift from Dr M. Ikebe (Case Western Reserve University, Cleveland, USA). Thrombin and benzamidine-Agarose were purchased from Sigma (Poole, UK).\n(§4) ^32P-labelled rabbit skeletal muscle phosphorylase a (containing 1.0 mol phosphate per mol subunit) was prepared by phosphorylation with phosphorylase kinase, ^32P-labelled rabbit skeletal muscle glycogen synthase (containing 1.5 mol/mol subunit in the sites 3 region) was prepared by phosphorylation with glycogen synthase kinase-3 [24]). ^32P-labelled chicken gizzard MLC20 and ^32P-labelled chicken gizzard heavy meromyosin (containing 1.0 mol phosphate per mol subunit) were prepared by phosphorylation with smooth muscle myosin light chain kinase. The dephosphorylation of phosphorylase a (10 μM), glycogen synthase (1 μM) and MLC20 (1 μM) and heavy meromyosin (1 μM) was carried out as in [24]. One unit of activity (U) was that amount which released […] of phosphate in one minute.\n(§5) PP1c was isolated from the rabbit skeletal muscle PP1-GM complex as described previously (Johnson et al, 1996). Glycogen particles isolated from rat liver (Schelling el al, 1988) served as the source of PP1-GL. The dephosphorylation of glycogen phosphorylase (10 μM) and the isolated MLC20 of smooth muscle myosin (1 μM) by PP1c was carried out as described previously (Cohen et al., 1988; Alessi et al., 1992)."}, "PP1c [2]": {"molecular_target": "T1, PP1c", "assay": "MLC20 (myosin P-light chain) phosphatase activity of PP1c", "assay_type": "biochemical", "procedure": "as §1, §2\n(A) The MLC20 phosphatase activity of PP1c was assayed after incubation for 15 minutes at 30° C. in the presence or absence of 1 μM GM-(G63-T93) and either 0.1 μM M110-(M1-F38) or 0.1 nM M110-(M1-E309).\n(1-38, open circles) or M110[M1-K35] (1-35, closed circles) were incubated with PP1c for 15 min at 30° C. and reactions started with the ^32P-labelled MLC20 substrate. The results are expressed as a % of the activity determined in control incubations where the M110 peptides were omitted (100%). Similar results were obtained in three separate experiments.\nas §3, §4, §5\n^32P-labelled myosin P-light chains containing 1.0 mol phosphate per mol subunit was prepared by phosphorylation with smooth muscle myosin light chain kinase. The dephosphorylation of myosin P-light chain (1 μM) was carried out as in [4] and one unit of activity (U) was that amount which catalysed the release of 1 μmole of phosphate in one min. When assaying PP1M in immunoprecipitates from the myofibrillar extracts, the tubes were shaken continuously and 3 nM okadaic acid was included to inhibit any PP2A present."}, "PP1c [3]": {"molecular_target": "T1, PP1c", "assay": "Glycogen synthase phosphatase activity of PP1c", "assay_type": "biochemical, rabbit", "procedure": "The glycogen synthase phosphatase activity of PP1c was measured after a 15 minute incubation at 30° C. with the indicated concentrations of M110-(M1-F38) and M110-(M1-E309). Similar results were obtained in three different experiments.\nas §4"}},
  "data": [
    {"molecule": "B1", "values": [
      {"measurement": "suppression of PP1c activity towards glycogen phosphorylase", "setting": "PP1c [1]", "result": "about 80%"},
      {"measurement": "concentration required to activate the MLC20 phosphatase activity maximally", "setting": "PP1c [2]", "result": 0.1, "unit": "nM"},
      {"measurement": "increase in PP1c activity towards MLC20 (maximal activation)", "setting": "PP1c [2]", "result": "about 3 fold"},
      {"measurement": "effect on the dephosphorylation of glycogen synthase by PP1c", "setting": "PP1c [3]", "result": "inhibited"}
    ]}
  ]
}
